Measured values reported in the supplement of paper PMC9112550, “Optimization of the antimicrobial peptide Bac7 by deep mutational scanning” (BMC Biology, 2022).

Tested on: Escherichia coli TOP10
Assay: shrunken log2 fold change of peptide-encoding DNA abundance (4.5 h post-induction vs induction); higher = less antimicrobial activity (less host growth inhibition)
Settings: time post-induction: 4.5 h; library: site-saturation at positions 5, 18, 19, 20
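Further: peptides expressed intracellularly from a pBAD plasmid library in pooled LB shake-flask culture, induced with 0.3% L-arabinose, DNA abundance read by NGS, three biological replicates, DESeq2 with apeglm shrinkage.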

Sequence	shrunken log2 fold change
RRIRPRPPRLPRPRPRPCECPRP	-0.014
RRIRGRPPRLPRPRPRPCYSPRP	-0.0391
RRIRLRPPRLPRPRPRPACTPRP	-0.128
RRIRYRPPRLPRPRPRPDDQPRP	-0.0136
RRIRIRPPRLPRPRPRPPINPRP	-0.305
RRIRARPPRLPRPRPRPITYPRP	-0.0353
RRIRARPPRLPRPRPRPISYPRP	-0.545
RRIRMRPPRLPRPRPRPQSEPRP	0.446
RRIRTRPPRLPRPRPRPQWSPRP	-0.431
RRIRDRPPRLPRPRPRPNKFPRP	-0.293
RRIRERPPRLPRPRPRPMLLPRP	-0.166
RRIRFRPPRLPRPRPRPVWHPRP	-0.0142
RRIRMRPPRLPRPRPRPRTCPRP	0.00872
RRIRARPPRLPRPRPRPWVPPRP	-0.146
RRIRRRPPRLPRPRPRPFWPPRP	0.312
RRIRHRPPRLPRPRPRPSKSPRP	-0.143
RRIRTRPPRLPRPRPRPVIVPRP	-0.314
RRIRCRPPRLPRPRPRPAGPPRP	0.116
RRIRPRPPRLPRPRPRPRNQPRP	0.00569
RRIRFRPPRLPRPRPRPHPKPRP	0.827
RRIRDRPPRLPRPRPRPKNDPRP	-0.103
RRIRRRPPRLPRPRPRPGMSPRP	0.226
RRIRFRPPRLPRPRPRPQPAPRP	0.652
RRIRARPPRLPRPRPRPNDIPRP	-0.448
RRIRQRPPRLPRPRPRPFYGPRP	-0.00903

Sequence	shrunken log2 fold change
RRIRLRPPRLPRPRPRPLQFPRP	0.0239
RRIRHRPPRLPRPRPRPTMAPRP	-0.0607
RRIRKRPPRLPRPRPRPMLWPRP	0.323
RRIRDRPPRLPRPRPRPLNFPRP	-0.139
RRIRPRPPRLPRPRPRPPNVPRP	-0.0451
RRIRTRPPRLPRPRPRPSLEPRP	-0.0452
RRIRCRPPRLPRPRPRPLDGPRP	-0.151
RRIRWRPPRLPRPRPRPSKNPRP	-0.158
RRIRIRPPRLPRPRPRPIIAPRP	-0.389
RRIRLRPPRLPRPRPRPASWPRP	0.454
RRIRLRPPRLPRPRPRPEHQPRP	-0.0896
RRIRDRPPRLPRPRPRPHFMPRP	-0.47
RRIRFRPPRLPRPRPRPATCPRP	0.00724
RRIRRRPPRLPRPRPRPCEMPRP	0.36
RRIRKRPPRLPRPRPRPEVVPRP	0.016
RRIRVRPPRLPRPRPRPGGQPRP	-0.0141
RRIRARPPRLPRPRPRPHYYPRP	-0.146
RRIRRRPPRLPRPRPRPENSPRP	0.118
RRIRQRPPRLPRPRPRPCSPPRP	0.0218
RRIRYRPPRLPRPRPRPALFPRP	-0.0533
RRIRNRPPRLPRPRPRPDFLPRP	-0.342
RRIRRRPPRLPRPRPRPWVVPRP	-0.0166
RRIRVRPPRLPRPRPRPLVHPRP	-0.145
RRIRARPPRLPRPRPRPPQWPRP	0.814
RRIRWRPPRLPRPRPRPAGSPRP	-0.176

Sequence	shrunken log2 fold change
RRIRQRPPRLPRPRPRPWDSPRP	-0.198
RRIRSRPPRLPRPRPRPPACPRP	0.185
RRIRMRPPRLPRPRPRPTDGPRP	-0.0062
RRIRKRPPRLPRPRPRPNLFPRP	0.00721
RRIRSRPPRLPRPRPRPLSPPRP	0.0487
RRIRMRPPRLPRPRPRPQSAPRP	0.055
RRIRARPPRLPRPRPRPRQNPRP	0.723
RRIRLRPPRLPRPRPRPEKKPRP	-0.176
RRIRDRPPRLPRPRPRPMHHPRP	-0.146
RRIRSRPPRLPRPRPRPEMRPRP	0.84
RRIRDRPPRLPRPRPRPVNLPRP	0.0119
RRIRWRPPRLPRPRPRPNQVPRP	0.0796
RRIRYRPPRLPRPRPRPKEGPRP	-0.186
RRIRQRPPRLPRPRPRPIEPPRP	-0.0381
RRIRNRPPRLPRPRPRPSDCPRP	-0.483
RRIRCRPPRLPRPRPRPQGTPRP	-0.35
RRIRQRPPRLPRPRPRPSASPRP	0.0788
RRIRDRPPRLPRPRPRPQWSPRP	-0.0128
RRIRVRPPRLPRPRPRPSYQPRP	-0.34
RRIRWRPPRLPRPRPRPDNEPRP	0.403
RRIRYRPPRLPRPRPRPNEGPRP	-0.363
RRIRTRPPRLPRPRPRPTMWPRP	-0.0407
RRIRDRPPRLPRPRPRPCMAPRP	0.203
RRIRIRPPRLPRPRPRPNKEPRP	-0.131
RRIRLRPPRLPRPRPRPRLMPRP	-0.197

Sequence	shrunken log2 fold change
RRIRCRPPRLPRPRPRPHDHPRP	-0.307
RRIRSRPPRLPRPRPRPDRCPRP	-0.115
RRIRNRPPRLPRPRPRPRFDPRP	0.0608
RRIRGRPPRLPRPRPRPRTGPRP	0.617
RRIRCRPPRLPRPRPRPGVAPRP	0.632
RRIRQRPPRLPRPRPRPLEAPRP	0.225
RRIRWRPPRLPRPRPRPQCIPRP	-0.0652
RRIRSRPPRLPRPRPRPEPTPRP	0.467
RRIRTRPPRLPRPRPRPARWPRP	0.471
RRIRRRPPRLPRPRPRPCGYPRP	0.0658
RRIRLRPPRLPRPRPRPACVPRP	0.131
RRIRERPPRLPRPRPRPFHDPRP	-0.291
RRIRWRPPRLPRPRPRPHKIPRP	-0.0312
RRIRSRPPRLPRPRPRPYHVPRP	-1.09
RRIRYRPPRLPRPRPRPNVGPRP	-0.00664
RRIRWRPPRLPRPRPRPGMVPRP	0.628
RRIRVRPPRLPRPRPRPSGFPRP	-0.131
RRIRIRPPRLPRPRPRPWTSPRP	-0.171
RRIRTRPPRLPRPRPRPMCTPRP	-0.0211
RRIRFRPPRLPRPRPRPTWAPRP	0.0327
RRIRDRPPRLPRPRPRPYSQPRP	-0.0305
RRIRPRPPRLPRPRPRPDWYPRP	-0.213
RRIRLRPPRLPRPRPRPSNNPRP	-0.928
RRIRERPPRLPRPRPRPMFHPRP	-0.897
RRIRMRPPRLPRPRPRPRCKPRP	0.198

Sequence	shrunken log2 fold change
RRIRCRPPRLPRPRPRPATQPRP	0.262
RRIRLRPPRLPRPRPRPIKNPRP	-0.317
RRIRHRPPRLPRPRPRPGPHPRP	-0.14
RRIRGRPPRLPRPRPRPMCYPRP	0.243
RRIRKRPPRLPRPRPRPAPQPRP	0.937
RRIRTRPPRLPRPRPRPLYAPRP	-0.274
RRIRDRPPRLPRPRPRPATVPRP	-0.0689
RRIRRRPPRLPRPRPRPPQPPRP	1.26
RRIRWRPPRLPRPRPRPNPLPRP	3.58e-05
RRIRTRPPRLPRPRPRPQSGPRP	0.00577
RRIRHRPPRLPRPRPRPWTFPRP	-0.229
RRIRTRPPRLPRPRPRPTEEPRP	0.12
RRIRKRPPRLPRPRPRPVRLPRP	0.203
RRIRPRPPRLPRPRPRPICWPRP	0.0407
RRIRNRPPRLPRPRPRPFPAPRP	-0.0844
RRIRVRPPRLPRPRPRPRGQPRP	0.131
RRIRDRPPRLPRPRPRPAFCPRP	0.111
RRIRSRPPRLPRPRPRPRPLPRP	0.171
RRIRVRPPRLPRPRPRPNEWPRP	0.0106
RRIRIRPPRLPRPRPRPFYDPRP	-0.202
RRIRDRPPRLPRPRPRPQPDPRP	0.177
RRIRMRPPRLPRPRPRPWMWPRP	-0.0668
RRIRTRPPRLPRPRPRPHYDPRP	-0.302
RRIRFRPPRLPRPRPRPPIFPRP	-0.0711
RRIRCRPPRLPRPRPRPEGWPRP	0.855

Sequence	shrunken log2 fold change
RRIRCRPPRLPRPRPRPPNCPRP	0.0348
RRIRDRPPRLPRPRPRPWQDPRP	-0.0397
RRIRCRPPRLPRPRPRPYAIPRP	-0.803
RRIRERPPRLPRPRPRPHVYPRP	-0.764
RRIRGRPPRLPRPRPRPKVKPRP	0.547
RRIRNRPPRLPRPRPRPIIHPRP	-0.712
RRIRSRPPRLPRPRPRPGMNPRP	-0.249
RRIRMRPPRLPRPRPRPKVLPRP	0.0109
RRIRPRPPRLPRPRPRPLHFPRP	-0.207
RRIRHRPPRLPRPRPRPPNSPRP	-0.201
RRIRMRPPRLPRPRPRPFESPRP	-0.00973
RRIRHRPPRLPRPRPRPIAWPRP	0.0843
RRIRIRPPRLPRPRPRPCDNPRP	-0.178
RRIRNRPPRLPRPRPRPSHVPRP	-0.0765
RRIRYRPPRLPRPRPRPSVCPRP	-0.769
RRIRLRPPRLPRPRPRPRSLPRP	0.0255
RRIRKRPPRLPRPRPRPCFPPRP	0.123
RRIRIRPPRLPRPRPRPCLIPRP	-0.337
RRIRERPPRLPRPRPRPRWDPRP	0.143
RRIRWRPPRLPRPRPRPDCFPRP	1.32
RRIRPRPPRLPRPRPRPIEFPRP	-0.114
RRIRNRPPRLPRPRPRPYTRPRP	-0.124
RRIRWRPPRLPRPRPRPLKWPRP	0.488
RRIRQRPPRLPRPRPRPRLLPRP	0.0504
RRIRERPPRLPRPRPRPVFVPRP	-0.178
